In paper PMC10397247 one finds interaction score data, which are given here for one molecule.

Experiment in all cases: two-hybrid library CCNG1;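 note: natural log of median RNA to DNA barcode read ratio; higher means stronger binding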
One experiment addresses T1, 4H949-bA.
T1 chain: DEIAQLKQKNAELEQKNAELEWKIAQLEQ

A further experiment concerns the target T2, 4H932-bA.
T2 chain: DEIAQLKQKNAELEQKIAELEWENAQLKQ

A further experiment deals with T3, 4H796-bA.
T3 chain: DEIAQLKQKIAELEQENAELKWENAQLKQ

The target in another experiment is T4, 4H56-bA.
T4 chain: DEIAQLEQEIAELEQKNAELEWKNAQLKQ

Another experiment has as its target T5, O15-bP.
T5 chain: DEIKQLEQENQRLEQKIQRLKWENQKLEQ

The next experiment concerns the target T6, 4H349-bA.
T6 chain: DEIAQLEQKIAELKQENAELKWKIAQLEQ

The next experiment deals with T7, 4H730-bA.
T7 chain: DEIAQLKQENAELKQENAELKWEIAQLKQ

B1: 4H349-bA (peptide)
chain: DEIAQLEQKIAELKQENAELKWKIAQLEQ
On to B1, for which the interaction score in the experiment with 4H949-bA is -1.01; in the experiment with 4H932-bA it was -0.919; with 4H796-bA, -0.458; in the experiment with 4H56-bA, -0.982; with O15-bP, 0.584; in the experiment with 4H349-bA it was 0.649. In addition, the interaction score in the experiment with 4H730-bA was -0.854.
